According to US20210292396A1:

Key:
Experiment in all cases: cell-based or functional assay
[1] = biological target: HIV Env of isolate 231965.c01 (HIV)
[2] = biological target: Env of HIV isolate 00836-2.5 (clade C) (HIV)
[3] = biological target: Env of HIV isolate 0439.v5.c1 (clade A) (HIV)
[4] = biological target: Env of HIV isolate 16055-2.3 (clade C) (HIV)
[5] = biological target: Env of HIV isolate 242-14 (clade AG) (HIV)
[6] = biological target: Env of HIV isolate 25710-2.43 (clade C) (HIV)
[7] = biological target: Env of HIV isolate 25711-2.4 (clade C) (HIV)
[8] = biological target: Env of HIV isolate 3365.v2.c20 (clade A) (HIV)
[9] = biological target: Env of HIV isolate 3589.v1.c4 (clade AC) (HIV)
[10] = biological target: Env of HIV isolate 3637.v5.c3 (clade C) (HIV)
[11] = biological target: Env of HIV isolate 45_01dG5 (clade B) (HIV)
[12] = biological target: Env of HIV isolate 6101.10 (clade B) (HIV)
[13] = biological target: Env of HIV isolate 6535.3 (clade B) (HIV)
[14] = biological target: Env of HIV isolate 6838.v1.c35 (clade C) (HIV)
[15] = biological target: Env of HIV isolate A03349M1.vrc4a (clade D) (HIV)
[16] = biological target: Env of HIV isolate BG1168.01 (clade B) (HIV)
[17] = biological target: Env of HIV isolate BG505.W6M.C2 (clade A) (HIV)
[18] = biological target: Env of HIV isolate BJOX025000.01.1 (clade AE) (HIV)
[19] = biological target: Env of HIV isolate BR025.9 (clade C) (HIV)
[20] = biological target: Env of HIV isolate BaL.26 (clade B) (HIV)
[21] = biological target: Env of HIV isolate CAP45.G3 (clade C) (HIV)
[22] = biological target: Env of HIV isolate CH038.12 (clade BC) (HIV)
[23] = biological target: Env of HIV isolate CH119.10 (clade BC) (HIV)
[24] = biological target: Env of HIV isolate CH181.12 (clade BC) (HIV)
[25] = biological target: Env of HIV isolate CM244.ec1 (clade AE) (HIV)
[26] = biological target: Env of HIV isolate CNE14 (clade B) (HIV)
[27] = biological target: Env of HIV isolate CNE31 (clade C) (HIV)
[28] = biological target: Env of HIV isolate CNE40 (clade BC) (HIV)
[29] = biological target: Env of HIV isolate CNE53 (clade C in Table 7) (HIV)
[30] = biological target: Env of HIV isolate CNE59 (clade AE) (HIV)
[31] = biological target: Env of HIV isolate DJ263.8 (clade AG) (HIV)
[32] = biological target: Env of HIV isolate KER2008.12 (clade A) (HIV)
[33] = biological target: Env of HIV isolate QH0515.01 (clade B) (HIV)
[34] = biological target: Env of HIV isolate QH0692.42 (clade B) (HIV)
[35] = biological target: Env of HIV isolate T250-4 (clade AG) (HIV)
[36] = biological target: Env of HIV isolate TH966.8 (clade AE) (HIV)
[37] = biological target: Env of HIV isolate TZA125.17 (clade C) (HIV)
[38] = biological target: Env of HIV isolate UG021.16 (clade D) (HIV)
[39] = biological target: Env of HIV isolate ZA012.29 (clade C) (HIV)
[40] = biological target: Env of HIV isolate ZM53.12 (clade C) (HIV)
[41] = biological target: HIV Env of isolate 001428-2.42 (HIV)
[42] = biological target: HIV Env of isolate 191821.E6.1 (HIV)
[43] = biological target: HIV Env of isolate 247-23 (HIV)
[44] = biological target: HIV Env of isolate 3873.v1.c24 (HIV)
[45] = biological target: HIV Env of isolate 426c (HIV)
[46] = biological target: HIV Env of isolate DU422.01 (HIV)
[47] = biological target: HIV Env of isolate MW965.26 (HIV)
[48] = biological target: HIV Env of isolate SO18.18 (HIV)
[49] = biological target: HIV Env of isolate ZM214.15 (HIV)
[50] = biological target: HIV Env of isolate ZM53.12 (HIV)

B1: ePGT121.15.H2.L1 (antibody, V domains shown)
VH: QMQLQESGPGLVKPGETLSLTCSVSGASISSSYWSWLRETPGKGLEWIGYTHHSGDTNYAPSLKSRVHLGLHPSKNQVSLSLTSVTAADTAVYYCARTLHGRRIYGVVAFNEWFTYFYWEVWGKGTQVTVSS
VL: SDISVAPGETVRISCGGESIGSRAVQWYQHRAGQAPKLIIYNNQDRPPGIPERFSGSPDIDFGTTATLTITNVEAGDEATYYCHIWDSRRPTNWVFGGGTTLTVL
B1 gave a neutralization (Table 6 value) [1] of 0.285.

B2: ePGT121.18.17 (ePGT121.18.H17 VH and ePGT121.17.L1 VL) (antibody, V domains shown)
VH: QMQLQESGPGLVKPGETLSLTCSVSGASISSSYWSWLRETPGKGLEWIGYTHHSGDTNYAPSLKSRVTIGLDPSKNQVSLSLTSVTAADTAVYYCARTLHGRRIYGVVAFNEYYTYFYWPTWGKGTQVTVSS
VL: SDISVAPGETVRITCGGESIGSRAVQWYQHRPGQAPRLIIYNNQDRPPGIPERFSGSPDIDFGTTATLTISNVEAGDEATYYCHIWDSRRPTNWELGPGTTLTVL
With B2 the IC50, pseudovirus neutralization [2] was 48.9 µg/mL, the IC50, pseudovirus neutralization [3] was over 50 µg/mL and the IC50, pseudovirus neutralization [4] was 0.036 µg/mL. For the same binder, the IC50, pseudovirus neutralization [5] was over 50 µg/mL, the IC50, pseudovirus neutralization [6] was 0.008 µg/mL and the IC50, pseudovirus neutralization [7] was 0.006 µg/mL. The IC50, pseudovirus neutralization [8] was 0.007 µg/mL, the IC50, pseudovirus neutralization [9] was 2.73 µg/mL and the IC50, pseudovirus neutralization [10] was over 50 µg/mL. The IC50, pseudovirus neutralization [11] was 0.003 µg/mL, the IC50, pseudovirus neutralization [12] was 0.004 µg/mL and the IC50, pseudovirus neutralization [13] was 0.002 µg/mL. It also gave an IC50, pseudovirus neutralization [14] of 0.576 µg/mL, an IC50, pseudovirus neutralization [15] of 0.009 µg/mL and an IC50, pseudovirus neutralization [16] of over 50 µg/mL. It also gave an IC50, pseudovirus neutralization [17] of 0.047 µg/mL, an IC50, pseudovirus neutralization [18] of over 50 µg/mL and an IC50, pseudovirus neutralization [19] of 0.003 µg/mL. It also gave an IC50, pseudovirus neutralization [20] of 0.004 µg/mL, an IC50, pseudovirus neutralization [21] of 8.91 µg/mL and an IC50, pseudovirus neutralization [22] of 0.002 µg/mL. It also gave an IC50, pseudovirus neutralization [23] of 0.013 µg/mL, an IC50, pseudovirus neutralization [24] of 0.004 µg/mL and an IC50, pseudovirus neutralization [25] of 7.23 µg/mL. For the same binder, the IC50, pseudovirus neutralization [26] was 0.003 µg/mL, the IC50, pseudovirus neutralization [27] was 0.089 µg/mL and the IC50, pseudovirus neutralization [28] was 0.036 µg/mL. For the same binder, the IC50, pseudovirus neutralization [29] was 0.006 µg/mL, the IC50, pseudovirus neutralization [30] was over 50 µg/mL and the IC50, pseudovirus neutralization [31] was 0.014 µg/mL. The IC50, pseudovirus neutralization [32] was 0.01 µg/mL, the IC50, pseudovirus neutralization [33] was 0.035 µg/mL and the IC50, pseudovirus neutralization [34] was 0.035 µg/mL. It also gave an IC50, pseudovirus neutralization [35] of 0.002 µg/mL, an IC50, pseudovirus neutralization [36] of over 50 µg/mL and an IC50, pseudovirus neutralization [37] of 0.18 µg/mL. For the same binder, the IC50, pseudovirus neutralization [38] was 0.013 µg/mL, the IC50, pseudovirus neutralization [39] was 0.005 µg/mL and the IC50, pseudovirus neutralization [40] was 0.015 µg/mL. For the same binder, the IC80, pseudovirus neutralization [41] was 0.008 µg/mL, the IC80, pseudovirus neutralization [42] was 0.727 µg/mL and the IC80, pseudovirus neutralization [1] was over 50 µg/mL. It also gave an IC80, pseudovirus neutralization [43] of over 50 µg/mL, an IC80, pseudovirus neutralization [44] of 0.02 µg/mL and an IC80, pseudovirus neutralization [45] of 1 µg/mL. The IC80, pseudovirus neutralization [46] was 0.036 µg/mL, the IC80, pseudovirus neutralization [47] was 0.011 µg/mL and the IC80, pseudovirus neutralization [48] was 0.011 µg/mL. It also gave an IC80, pseudovirus neutralization [49] of 0.294 µg/mL and an IC80, pseudovirus neutralization [50] of 0.079 µg/mL.
